Results taken from patent EP4810516A1.

Target: γ9δ2 TCR on human γ9δ2 T cells (human) (UniProt Q99603)
Test: FACS, serially diluted antibody on γ9δ2 T cells, anti-human Fc secondary

Chain of γ9δ2 TCR on human γ9δ2 T cells (human) (Q99603 21-122, stated change not applied, chain 1 of 2): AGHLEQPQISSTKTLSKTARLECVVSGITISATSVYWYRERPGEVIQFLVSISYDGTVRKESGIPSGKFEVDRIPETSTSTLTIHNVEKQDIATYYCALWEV
Chain of γ9δ2 TCR on human γ9δ2 T cells (human) (A0JD36 20-115, stated change not applied, chain 2 of 2, further chain): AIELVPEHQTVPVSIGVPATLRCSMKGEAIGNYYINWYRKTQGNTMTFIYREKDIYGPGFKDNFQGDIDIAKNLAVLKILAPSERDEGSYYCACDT

B1: SDP01369 (antibody, human IgG1, kappa, V domains shown)
VH: EVQLVESGGGLVKPGGSLRLSCAASGFTFSSYAMSWVRQAPGKRLEWVASISSGGSTYYPDSVKGRFTISRDNAKNSLYLQMNSLRAEDTAVYYCARDGYPPFDYWGQGTTVTVSS
VL: DIQMTQSPSSVSASVGDRVTITCKASQNVGTNVAWYQQKPGKAPKALIYSASYRYSGVPSRFSGSGSGTDFTLTISSLQPEDFATYYCQQYNSFPLTFGQGTKLEIKR
EC50: 1.74 nM
Max MFI: 15000 MFI
